This is an account of results in patent publication US20180153953A1 (CITY OF HOPE, published 2018).

The target of the experiment is T1, Mu-type opioid receptor (Homo sapiens) (Homo sapiens, UniProt P35372 1-400).
T1 construct: Endogenous receptor of PANC-1 cells, PANC-1 MCTS, normal pancreatic epithelial cells and patient tissue (fixed cells or cell lysates); also called MOR; mu opioid receptor
In words: co-immunoprecipitation: lysates of normal pancreatic epithelial cells or PANC-1 cells, IP anti-MOR, blot anti-CXCR4. From the text:
FIG. 3A-3D: There is no co-localization between MOR and CXCR4. FIG. 3A. […] Peak centers are shown. FIG. 3B. […] Peak centers are shown. FIG. 3C. Cross-correlation curves with s.e.m show no co-localization between MOR and CXCR4 in PANC-1 cells (diamonds, N=32 regions from 14 cells), PANC-1 MCTS (triangles, N=20 regions from 12 cells), and normal pancreatic epithelial cells (circles, N=21 regions from 13 cells). In all cases no long-range correlations were observed. FIG. 3D. Cell lysates from either normal pancreatic epithelial cells or PANC-1 cells were immunoprecipitated with anti-MOR antibody and immunoblotted with anti-CXCR4 antibody. CXCR4 was not detected in the MOR immunoprecipitate in either cell line.
Co-immunoprecipitation was performed using the co-immunoprecipitation kit (Pierce) per the manufacturer's protocol. Briefly, MOR antibody was immobilized using a coupling resin. PANC-1 or normal pancreatic epithelial cells were lysed using buffer containing 1% Nonidet P-40, 10% glycerol, 50 mM Tris-Cl, pH 7.4, 300 mM NaCl, 1.5 mM MgCl₂, 1 mM CaCl₂ and protease inhibitor tablets (Pierce) similarly as described before (Rozenfeld and Devi, 2007), pre-cleared and added to the antibody coupled resin and incubated with gentle shaking overnight at 4° C. After thorough washes, the protein sample co-immunoprecipitate was eluted and used for Western blotting with SSTR2 or CXCR4 antibodies. […]

T1 sequence (P35372 whole entry): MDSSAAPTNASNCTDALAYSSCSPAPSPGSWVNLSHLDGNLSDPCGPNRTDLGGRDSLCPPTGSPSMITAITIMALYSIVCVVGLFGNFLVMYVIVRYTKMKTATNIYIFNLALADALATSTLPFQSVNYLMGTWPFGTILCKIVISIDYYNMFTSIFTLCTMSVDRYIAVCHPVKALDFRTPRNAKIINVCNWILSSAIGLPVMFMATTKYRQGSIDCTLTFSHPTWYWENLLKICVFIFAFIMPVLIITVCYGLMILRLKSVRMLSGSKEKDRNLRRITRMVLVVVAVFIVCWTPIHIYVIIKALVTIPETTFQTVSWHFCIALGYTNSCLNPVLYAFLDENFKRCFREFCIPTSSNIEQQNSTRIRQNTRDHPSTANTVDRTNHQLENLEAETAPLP

B1: C-X-C motif receptor 4 (CXCR4) (receptor, human, UniProt P61073 1-352, looked up)
chain: MEGISIYTSDNYTEEMGSGDYDSMKEPCFREENANFNKIFLPTIYSIIFLTGIVGNGLVILVMGYQKKLRSMTDKYRLHLSVADLLFVITLPFWAVDAVANWYFGNFLCKAVHVIYTVNLYSSVLILAFISLDRYLAIVHATNSQRPRKLLAEKVVYVGVWIPALLLTIPDFIFANVSEADDRYICDRFYPNDLWVVVFQFQHIMVGLILPGIVILSCYCIIISKLSHSKGHQKRKALKTTVILILAFFACWLPYYIGISIDSFILLEIIKQGCEFENTVHKWISITEALAFFHCCLNPILYAFLGAKFKTSAQHALTSVSRGSSLKILSKGKRGGHSSVSTESESSSFHSS
notes: whole, on cells; Endogenous receptor in fixed cells or cell lysates
As to B1, the binding result was “no binding”.
